# Assay results: IntAct's records for PubMed 29858488
# B1: Motile sperm domain-containing protein 2 (Homo sapiens), Q8NHP6 (parent)
# chain: MAENHAQNKAKLISETRRRFEAEYVTDKSDKYDARDVERLQQDDNWVESYLSWRHNIVDETLKMLDESFQWRKEISVNDLNESSIPRWLLEIGVIYLHGYDKEGNKLFWIRVKYHVKDQKTILDKKKLIAFWLERYAKRENGKPVTVMFDLSETGINSIDMDFVRFIINCFKVYYPKYLSKIVIFDMPWLMNAAFKIVKTWLGPEAVSLLKFTSKNEVQDYVSVEYLPPHMGGTDPFKYSYPPLVDDDFQTPLCENGPITSEDETSSKEDIESDGKETLETISNEEQTPLLKKINPTESTSKAEENEKVDSKVKAFKKPLSVFKGPLLHISPAEELYFGSTESGEKKTLIVLTNVTKNIVAFKVRTTAPEKYRVKPSNSSCDPGASVDIVVSPHGGLTVSAQDRFLIMAAEMEQSSGTGPAELTQFWKEVPRNKVMEHRLRCHTVESSKPNTLTLKDNAFNMSDKTSEDICLQLSRLLESNRKLEDQVQRCIWFQQLLLSLTMLLLAFVTSFFYLLYS
# partner: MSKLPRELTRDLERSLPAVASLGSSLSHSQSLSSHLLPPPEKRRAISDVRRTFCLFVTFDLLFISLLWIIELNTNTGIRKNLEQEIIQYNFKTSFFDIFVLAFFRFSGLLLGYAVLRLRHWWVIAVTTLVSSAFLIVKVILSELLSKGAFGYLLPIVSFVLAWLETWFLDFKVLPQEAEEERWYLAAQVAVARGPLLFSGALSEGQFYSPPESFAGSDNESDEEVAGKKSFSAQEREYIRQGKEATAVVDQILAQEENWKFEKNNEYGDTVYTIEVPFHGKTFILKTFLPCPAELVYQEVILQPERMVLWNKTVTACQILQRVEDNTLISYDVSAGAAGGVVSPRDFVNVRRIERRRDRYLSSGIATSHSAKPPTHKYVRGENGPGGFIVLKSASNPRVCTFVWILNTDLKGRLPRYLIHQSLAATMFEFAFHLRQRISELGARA
# B2: Motile sperm domain-containing protein 2 (Homo sapiens), Q8NHP6 (parent)
# chain: B1 chain
# partner: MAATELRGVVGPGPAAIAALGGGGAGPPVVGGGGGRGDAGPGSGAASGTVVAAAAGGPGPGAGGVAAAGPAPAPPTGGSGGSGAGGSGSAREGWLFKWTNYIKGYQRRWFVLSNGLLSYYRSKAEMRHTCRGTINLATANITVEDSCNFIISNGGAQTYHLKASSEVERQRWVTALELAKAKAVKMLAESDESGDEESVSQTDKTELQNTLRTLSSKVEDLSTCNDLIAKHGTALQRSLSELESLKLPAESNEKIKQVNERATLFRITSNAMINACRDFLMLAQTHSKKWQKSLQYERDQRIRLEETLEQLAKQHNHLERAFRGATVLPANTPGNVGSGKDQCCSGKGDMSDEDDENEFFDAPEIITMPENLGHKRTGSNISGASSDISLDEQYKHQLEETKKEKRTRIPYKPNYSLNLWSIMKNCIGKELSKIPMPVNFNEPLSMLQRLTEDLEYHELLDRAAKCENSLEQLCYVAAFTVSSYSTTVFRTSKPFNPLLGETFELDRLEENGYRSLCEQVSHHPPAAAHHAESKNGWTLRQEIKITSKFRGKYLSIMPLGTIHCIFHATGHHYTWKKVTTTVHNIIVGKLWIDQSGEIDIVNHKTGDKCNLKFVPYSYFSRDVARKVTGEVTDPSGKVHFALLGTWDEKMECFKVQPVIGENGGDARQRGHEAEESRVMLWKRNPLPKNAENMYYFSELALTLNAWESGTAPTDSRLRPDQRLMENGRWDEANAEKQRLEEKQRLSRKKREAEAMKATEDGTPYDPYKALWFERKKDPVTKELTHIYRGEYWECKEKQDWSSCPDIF
# B3: Vesicle-associated membrane protein-associated protein A (Homo sapiens), Q9P0L0 (parent)
# chain: MASASGAMAKHEQILVLDPPTDLKFKGPFTDVVTTNLKLRNPSDRKVCFKVKTTAPRRYCVRPNSGIIDPGSTVTVSVMLQPFDYDPNEKSKHKFMVQTIFAPPNTSDMEAVWKEAKPDELMDSKLRCVFEMPNENDKLNDMEPSKAVPLNASKQDGPMPKPHSVSLNDTETRKLMEECKRLQGEMMKLSEENRHLRDEGLRLRKVAHSDKPGSTSTASFRDNVTSPLPSLLVVIAAIFIGFFLGKFIL
# partner: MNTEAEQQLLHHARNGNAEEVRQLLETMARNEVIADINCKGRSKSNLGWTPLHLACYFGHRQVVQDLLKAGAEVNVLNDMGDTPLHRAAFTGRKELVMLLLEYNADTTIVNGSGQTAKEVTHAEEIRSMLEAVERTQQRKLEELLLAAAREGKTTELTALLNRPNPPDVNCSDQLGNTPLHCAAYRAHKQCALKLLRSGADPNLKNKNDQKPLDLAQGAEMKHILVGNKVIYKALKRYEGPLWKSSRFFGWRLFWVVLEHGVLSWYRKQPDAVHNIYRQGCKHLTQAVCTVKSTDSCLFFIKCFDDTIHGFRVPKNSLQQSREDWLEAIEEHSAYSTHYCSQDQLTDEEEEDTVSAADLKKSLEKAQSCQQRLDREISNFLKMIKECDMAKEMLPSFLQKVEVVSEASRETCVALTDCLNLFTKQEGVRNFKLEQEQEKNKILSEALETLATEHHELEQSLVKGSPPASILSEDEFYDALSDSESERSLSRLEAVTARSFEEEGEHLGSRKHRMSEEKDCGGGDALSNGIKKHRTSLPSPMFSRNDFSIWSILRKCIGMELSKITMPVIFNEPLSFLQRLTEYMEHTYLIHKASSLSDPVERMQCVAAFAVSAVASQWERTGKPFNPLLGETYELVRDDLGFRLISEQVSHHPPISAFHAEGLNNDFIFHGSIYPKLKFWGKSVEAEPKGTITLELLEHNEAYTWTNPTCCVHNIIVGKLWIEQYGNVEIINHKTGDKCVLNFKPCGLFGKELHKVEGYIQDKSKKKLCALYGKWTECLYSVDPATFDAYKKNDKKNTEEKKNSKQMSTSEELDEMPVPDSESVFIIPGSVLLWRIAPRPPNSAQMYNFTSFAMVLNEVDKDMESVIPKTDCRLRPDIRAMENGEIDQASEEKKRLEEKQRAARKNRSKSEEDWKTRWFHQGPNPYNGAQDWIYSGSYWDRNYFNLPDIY
# B4: Motile sperm domain-containing protein 2 (Homo sapiens), Q8NHP6 (parent)
# chain: B1 chain
# partner: B3 partner
# B5: Motile sperm domain-containing protein 2 (Homo sapiens), Q8NHP6 (parent)
# chain: B1 chain
# partner: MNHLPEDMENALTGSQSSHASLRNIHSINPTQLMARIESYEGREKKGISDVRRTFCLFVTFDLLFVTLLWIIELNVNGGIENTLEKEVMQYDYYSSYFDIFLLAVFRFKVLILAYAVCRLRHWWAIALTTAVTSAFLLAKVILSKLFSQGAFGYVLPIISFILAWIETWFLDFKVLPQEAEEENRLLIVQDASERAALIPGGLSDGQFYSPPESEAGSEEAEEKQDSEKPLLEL
# B6: StAR-related lipid transfer protein 3 (Homo sapiens), Q14849 (parent)
# chain: B1 partner
# partner: B1 chain
# Variants of: B1
# Conditions: with star3_human STARD3, Q14849
row,effect of a mutation on the interaction,Variant
1,disrupting interaction strength,MAENHAQNKAKLISETRRRFEAEYVTDKSDKYDARDVERLQQDDNWVESYLSWRHNIVDETLKMLDESFQWRKEISVNDLNESSIPRWLLEIGVIYLHGYDKEGNKLFWIRVKYHVKDQKTILDKKKLIAFWLERYAKRENGKPVTVMFDLSETGINSIDMDFVRFIINCFKVYYPKYLSKIVIFDMPWLMNAAFKIVKTWLGPEAVSLLKFTSKNEVQDYVSVEYLPPHMGGTDPFKYSYPPLVDDDFQTPLCENGPITSEDETSSKEDIESDGKETLETISNEEQTPLLKKINPTESTSKAEENEKVDSKVKAFKKPLSVFKGPLLHISPAEELYFGSTESGEKKTLIVLTNVTKNIVAFKVRTTAPEKYRVKPSNSSCDPGASVDIVVSPHGGLTVSAQDDFDIMAAEMEQSSGTGPAELTQFWKEVPRNKVMEHRLRCHTVESSKPNTLTLKDNAFNMSDKTSEDICLQLSRLLESNRKLEDQVQRCIWFQQLLLSLTMLLLAFVTSFFYLLYS [R404D;L406D]

# Variants of: B2
# Conditions: with osbp1_human OSBP
row,effect of a mutation on the interaction,Variant
1,disrupting interaction strength,MAENHAQNKAKLISETRRRFEAEYVTDKSDKYDARDVERLQQDDNWVESYLSWRHNIVDETLKMLDESFQWRKEISVNDLNESSIPRWLLEIGVIYLHGYDKEGNKLFWIRVKYHVKDQKTILDKKKLIAFWLERYAKRENGKPVTVMFDLSETGINSIDMDFVRFIINCFKVYYPKYLSKIVIFDMPWLMNAAFKIVKTWLGPEAVSLLKFTSKNEVQDYVSVEYLPPHMGGTDPFKYSYPPLVDDDFQTPLCENGPITSEDETSSKEDIESDGKETLETISNEEQTPLLKKINPTESTSKAEENEKVDSKVKAFKKPLSVFKGPLLHISPAEELYFGSTESGEKKTLIVLTNVTKNIVAFKVRTTAPEKYRVKPSNSSCDPGASVDIVVSPHGGLTVSAQDDFDIMAAEMEQSSGTGPAELTQFWKEVPRNKVMEHRLRCHTVESSKPNTLTLKDNAFNMSDKTSEDICLQLSRLLESNRKLEDQVQRCIWFQQLLLSLTMLLLAFVTSFFYLLYS [R404D;L406D]

# Variants of: B3
# Conditions: with osbl1_human OSBPL1A
row,effect of a mutation on the interaction,Variant
1,disrupting interaction strength,MASASGAMAKHEQILVLDPPTDLKFKGPFTDVVTTNLKLRNPSDRKVCFKVKTTAPRRYCVRPNSGIIDPGSTVTVSVMLQPFDYDPNEKSKHDFDVQTIFAPPNTSDMEAVWKEAKPDELMDSKLRCVFEMPNENDKLNDMEPSKAVPLNASKQDGPMPKPHSVSLNDTETRKLMEECKRLQGEMMKLSEENRHLRDEGLRLRKVAHSDKPGSTSTASFRDNVTSPLPSLLVVIAAIFIGFFLGKFIL [K94D;M96D]

# Variants of: B4
# Conditions: with osbl1_human OSBPL1A
row,effect of a mutation on the interaction,Variant
1,disrupting interaction strength,MAENHAQNKAKLISETRRRFEAEYVTDKSDKYDARDVERLQQDDNWVESYLSWRHNIVDETLKMLDESFQWRKEISVNDLNESSIPRWLLEIGVIYLHGYDKEGNKLFWIRVKYHVKDQKTILDKKKLIAFWLERYAKRENGKPVTVMFDLSETGINSIDMDFVRFIINCFKVYYPKYLSKIVIFDMPWLMNAAFKIVKTWLGPEAVSLLKFTSKNEVQDYVSVEYLPPHMGGTDPFKYSYPPLVDDDFQTPLCENGPITSEDETSSKEDIESDGKETLETISNEEQTPLLKKINPTESTSKAEENEKVDSKVKAFKKPLSVFKGPLLHISPAEELYFGSTESGEKKTLIVLTNVTKNIVAFKVRTTAPEKYRVKPSNSSCDPGASVDIVVSPHGGLTVSAQDDFDIMAAEMEQSSGTGPAELTQFWKEVPRNKVMEHRLRCHTVESSKPNTLTLKDNAFNMSDKTSEDICLQLSRLLESNRKLEDQVQRCIWFQQLLLSLTMLLLAFVTSFFYLLYS [R404D;L406D]

# Variants of: B5
# Conditions: with str3n_human STARD3NL
row,effect of a mutation on the interaction,Variant
1,disrupting interaction strength,MAENHAQNKAKLISETRRRFEAEYVTDKSDKYDARDVERLQQDDNWVESYLSWRHNIVDETLKMLDESFQWRKEISVNDLNESSIPRWLLEIGVIYLHGYDKEGNKLFWIRVKYHVKDQKTILDKKKLIAFWLERYAKRENGKPVTVMFDLSETGINSIDMDFVRFIINCFKVYYPKYLSKIVIFDMPWLMNAAFKIVKTWLGPEAVSLLKFTSKNEVQDYVSVEYLPPHMGGTDPFKYSYPPLVDDDFQTPLCENGPITSEDETSSKEDIESDGKETLETISNEEQTPLLKKINPTESTSKAEENEKVDSKVKAFKKPLSVFKGPLLHISPAEELYFGSTESGEKKTLIVLTNVTKNIVAFKVRTTAPEKYRVKPSNSSCDPGASVDIVVSPHGGLTVSAQDDFDIMAAEMEQSSGTGPAELTQFWKEVPRNKVMEHRLRCHTVESSKPNTLTLKDNAFNMSDKTSEDICLQLSRLLESNRKLEDQVQRCIWFQQLLLSLTMLLLAFVTSFFYLLYS [R404D;L406D]

# Variants of: B6
# Conditions: with mspd2_human MOSPD2, Q8NHP6
row,effect of a mutation on the interaction,Variant
1,disrupting interaction strength,MSKLPRELTRDLERSLPAVASLGSSLSHSQSLSSHLLPPPEKRRAISDVRRTFCLFVTFDLLFISLLWIIELNTNTGIRKNLEQEIIQYNFKTSFFDIFVLAFFRFSGLLLGYAVLRLRHWWVIAVTTLVSSAFLIVKVILSELLSKGAFGYLLPIVSFVLAWLETWFLDFKVLPQEAEEERWYLAAQVAVARGPLLFSGALSEGQAASPPESFAGSDNESDEEVAGKKSFSAQEREYIRQGKEATAVVDQILAQEENWKFEKNNEYGDTVYTIEVPFHGKTFILKTFLPCPAELVYQEVILQPERMVLWNKTVTACQILQRVEDNTLISYDVSAGAAGGVVSPRDFVNVRRIERRRDRYLSSGIATSHSAKPPTHKYVRGENGPGGFIVLKSASNPRVCTFVWILNTDLKGRLPRYLIHQSLAATMFEFAFHLRQRISELGARA [F207A;Y208A]
